From patent US20260062447A1 (UNIVERSITY OF SOUTHAMPTON, published 2026)
Blank lines part the entries; values can stand above or below the binder they belong to.

Legend:
[1] = molecular target: HIF-1 three-domain protein; experiment: cell-based or functional assay
HIF-1α PAS-B domain [2] = molecular target: T1, HIF-1α PAS-B domain (UniProt Q16665 238-349, limits assumed, labelled for MST (label not named)); experiment: MST (microscale thermophoresis), labelled HIF-1α PAS-B [part 4 of 5]
T1 construct: domain: PAS-B; 25 nM labelled protein in the assay; also called HIF-1α PAS-B protein; labelled HIF-1α PAS-B
T1 sequence (Q16665 238-349 limits assumed): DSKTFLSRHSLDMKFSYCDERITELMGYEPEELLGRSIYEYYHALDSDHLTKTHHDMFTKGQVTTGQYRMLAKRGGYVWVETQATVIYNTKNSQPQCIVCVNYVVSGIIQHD
Experimental: (§1) An aliquot of labelled HIF-1α PAS-B was thawed on ice and diluted to 50 nM with HIF MST assay buffer, before being centrifuged at 12,000 rpm for 15 minutes. […] Samples were loaded into NanoTemper® Monolith NT.115 premium treated capillaries and measurements were carried out using a Monolith NT.115 system at 25° C. using 50% MST power and 50% LED power. Data was analysed by NanoTemper® analysis software. Binding curves were fitted using GraphPad Prism 8 software.

HIF-1α PAS-B domain [3] = molecular target: T1, HIF-1α PAS-B domain; experiment: MST (microscale thermophoresis), labelled HIF-1α PAS-B [part 3 of 5]
Experimental: as §1

HIF-1α PAS-B domain [4] = molecular target: T1, HIF-1α PAS-B domain; experiment: MST (microscale thermophoresis), labelled HIF-1α PAS-B [part 3 of 14) B]
Experimental: as §1

- binding result (HIF-1α PAS-B domain [2]): no binding
B1: cyclic peptide Met leu leu phe val tyr (peptide)
peptide: MLLFVY
modifications: cyclic peptide
notes: Comparative purposes only; also called M (methionine) cysteine derivative

- binding result (HIF-1α PAS-B domain [3]): no binding
B2: cyclic peptide Ser leu leu phe val tyr (peptide)
peptide: SLLFVY
modifications: cyclic peptide
notes: Comparative purposes only; also called S (serine) cysteine derivative

- binding result (HIF-1α PAS-B domain [3]): no binding
B4: cyclic peptide Thr leu leu phe val tyr (peptide)
peptide: TLLFVY
modifications: cyclic peptide
notes: Comparative purposes only; also called T (threonine) cysteine derivative

More lines, now with the values behind:

Binder: CLLFVY (cyclic peptide (cyclo-)) [cyclo-CLLFVY (Cys leu leu phe val tyr)]
- IC50 of inhibition of FAM-HRE DNA binding (fluorescence polarization) [1]: 76.5 µM

B3: Cyclo-CLLYVY (peptide)
cyclic peptide: CLLYVY
modifications: cyclic (cyclo-) peptide
notes: also called Y derivative at the phenylalanine position; Cys leu leu tyr val tyr
- Kd (HIF-1α PAS-B domain [4]): > 200 µM
